Target: T1, Fas on Jurkat cells (Homo sapiens, UniProt P25445)
T1 construct: endogenous in cells; host or cells: Jurkat
T1 sequence (P25445 26-335): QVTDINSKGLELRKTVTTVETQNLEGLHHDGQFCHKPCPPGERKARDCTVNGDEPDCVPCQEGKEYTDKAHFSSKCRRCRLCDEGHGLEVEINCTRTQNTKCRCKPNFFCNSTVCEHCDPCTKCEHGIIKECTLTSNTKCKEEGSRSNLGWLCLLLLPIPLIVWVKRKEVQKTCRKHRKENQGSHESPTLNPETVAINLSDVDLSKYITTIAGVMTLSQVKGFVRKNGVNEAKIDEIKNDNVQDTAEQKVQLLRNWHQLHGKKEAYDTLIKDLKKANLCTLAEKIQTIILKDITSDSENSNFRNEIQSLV
Test: Immunostaining of cell surface FasL binding on Jurkat cells
Assay type: cell-based
Details: 4° C. 30 minutes
Method: This antibody also recognizes Fas-Fc which is also tagged at the C-terminus by His. In FIG. 2b, a fixed amount of purified recombinant Fas-ligand was added to Fas-Fc in the absence or presence of increasing amounts of AlphaMet as indicated. Samples were subjected to pull down using proteinA agarose followed by Western blot using a polyclonal rabbit anti-FasL antibody. […] Fas ligand (1 μg/ml) was coated in the wells of a microtiter plate (triplicate wells) then 1 μg/ml of Fas-Fc was added in the absence or presence of an increasing amount of the indicated polypeptide. A 13 mer YLGA polypeptide derived from FasL also was synthesized and used. The control peptide was a scrambled 13 mer. Anti human IgM-HRP conjugates were used to detect the bound Fas-Fc. […] One-way ANOVA was carried out for determination of statistical significance. […] Cells (3×10^5) were plated in 24-well plates having Poly-L-Lysine pre-treated cover glass. 2 μg/ml of Fas ligand was added and the cells were incubated for 30 min on ice. Cells were then washed by PBS twice, and were subjected to immunostaining using anti-Fas ligand antibody and fluorescent microscopy. […]
Abrogation of Fas-FasL binding by the presence of the synthetic polypeptides corresponding to the AlphaMet YLGA (SEQ ID NO:1) motif was then analyzed. […]

B1: alpha subunit of Met (AlphaMet), amino acid residues 1 to 306, His-tagged (receptor, mouse)
chain: MKAPTVLAPGILVLLLSLVQRSHGECKEALVKSEMNVNMKYQLPNFTAETPIQNVVLHGHHIYLGATNYIYVLNDKDLQKVSEFKTGPVLEHPDCLPCRDCSSKANSSGGVWKDNINMALLVDTYYDDQLISCGSVNRGTCQRHVLPPDNSADIQSEVHCMFSPEEESGQCPDCVVSALGAKVLLSEKDRFINFFVGNTINSSYPPGYSLHSISVRRLKETQDGFKFLTDQSYIDVLPEFLDSYPIKYIHAFESNHFIYFLTVQKETLDAQTFHTRIIRFCSVDSGLHSYMEMPLECILTEKRRKRHHHHHH
cell surface FasL binding to Fas: blocked
